This is an account of results in paper PMC8297783, “Autocrine signaling by receptor tyrosine kinases in urothelial carcinoma of the bladder” (PLoS ONE, 2021).

The subject of the test is FL3 cells. Kind of test: cell proliferation assay, FL3 cells. The format is cell-based, Human. Conditions: 1% FBS, 6 d, added MST1 alone 5 nM, relative to untreated cells.

B1: MST1: exogenous cognate ligand of MST1R, added to cells at 5 nM (protein, UniProt P26927 19-711, looked up)
Hepatocyte growth factor-like …: QRSPLNDFQVLRGTELQHLLHAVVPGPWQEDVADAEECAGRCGPLMDCRAFHYNVSSHGCQLLPWTQHSPHTRLRRSGRCDLFQKKDYVRTCIMNNGVGYRGTMATTVGGLPCQAWSHKFPNDHKYTPTLRNGLEENFCRNPDGDPGGPWCYTTDPAVRFQSCGIKSCREAACVWCNGEEYRGAVDRTESGRECQRWDLQHPHQHPFEPGKFLDQGLDDNYCRNPDGSERPWCYTTDPQIEREFCDLPRCGSEAQPRQEATTVSCFRGKGEGYRGTANTTTAGVPCQRWDAQIPHQHRFTPEKYACKDLRENFCRNPDGSEAPWCFTLRPGMRAAFCYQIRRCTDDVRPQDCYHGAGEQYRGTVSKTRKGVQCQRWSAETPHKPQFTFTSEPHAQLEENFCRNPDGDSHGPWCYTMDPRTPFDYCALRRCADDQPPSILDPPDQVQFEKCGKRVDRLDQRRSKLRVVGGHPGNSPWTVSLRNRQGQHFCGGSLVKEQWILTARQCFSSCHMPLTGYEVWLGTLFQNPQHGEPSLQRVPVAKMVCGPSGSQLVLLKLERSVTLNQRVALICLPPEWYVVPPGTKCEIAGWGETKGTGNDTVLNVALLNVISNQECNIKHRGRVRESEMCTEGLLAPVGACEGDYGGPLACFTHNCWVLEGIIIPNRVCARSRWPAVFTRVSVFVDWIHKVMRLG
On to B1, for which the proliferation rate result was “significantly increased proliferation rate”.
